Experimental data: US7563583B2, “Heregulin variants” (Genentech, Inc., priority 1997, dated 2009)

Legend:
ErbB-3-Ig [1] = molecular target: T1, ErbB-3-Ig (Homo sapiens, UniProt P21860); assay: Phage ELISA of phage-displayed HRG-β1 variants, binding to ErbB-3-Ig
T1 construct: expressed the extracellular domain (ECD) of the ErbB-2, ErbB-3, or ErbB-4 receptor fused to a human IgG constant domain; made in house; host or cells: HEK-293 cells, secreted, Protein A purified
Description: To produce phage displaying the domains, mutagenesis reaction mixtures were electrotransformed into XL1-Blue™ cells (Stratagene, Inc., La Jolla, Calif.), according to the manufacturer's protocol. The transformed cells were then infected with 10^14 plaque-forming units (pfu) M13K07 helper phage (Promega Corp., Madison, Wis.). Phage stocks (about 10^14 phagemid/mL) were prepared by precipitating culture broths from the cells after 18-24 hours (h) of growth with 20% PEG(2000)/2.5 M NaCl, according to the method of Sambrook and Maniatis, Molecular Cloning a Laboratory Manual Cold Spring Harbor Press 429 (1989). […]
Serial dilutions of soluble ErbB-2/3-Ig (competitor) and a concentration of phage predetermined to give 60% saturation (without competitor) were added to the wells in 100 μL binding buffer. […] The amount of phage binding was determined by assaying horseradish peroxidase activity using o-phenylenediamine dihydrochloride) substrate solution (Sigma Chemical Company, St. Louis, Mo.). EC50 values were calculated as the concentration of soluble ErbB-2/3-Ig required to compete half of the phage off the plate.
Alanine-substituted variants were generated by site-directed mutagenesis according to Kunkel et al., Methods Enzymol. […] The affinities of the alanine-substituted variants for ErbB-3-Ig and ErbB-4-Ig was determined by phage ELISA as described in Example 1. […]

ErbB-3-Ig [2] = molecular target: T1, ErbB-3-Ig; assay: Inhibition of 125I-HRG-β1 177-244 binding by soluble Trx-variant fusions; conditions: soluble thioredoxin (Trx)-variant fusions; HRG-β1 = recombinant HRG-β1 177-244
Description: (§1) The affinities of the Trx-variant fusions for ErbB receptor-Ig fusions were determined by measuring inhibition of ^125I-HRG-β1 177-244 binding to ErbB-3-Ig and ErbB-4-Ig. Receptor fusions were coated on plates (Nunc Maxisorp C™ break-apart strip wells, Inter Med, Denmark) via anti-human IgG, as described in Example 1 for phage ELISA. Binding assays were carried out with a constant amount of ^125I-HRG-β1 177-244 (100-300 pM) and varying concentrations (100 pM-4 μM) of unlabeled Trx-variant fusion. Following incubation for 1-3 h at room temperature, plates were washed, and the amount of bound ^125I-HRG-β1 177-244 in each well was counted on a gamma counter (Isodata, ICN Biomedic Systems, Huntsville, Ala.). For the ErbB-3 binding assays, the blocking buffer was TBST (0.025 M Tris-HCl [pH 7.5], 0.15 M NaCl, 0.02% Tween 20™) containing 1% BSA; the binding buffer was RPMI 1640™ cell culture media (Gibco-BRL, Gaithersburg, Md.) containing 2 mM glutamine, 100 U/mL penicillin, 100 μg/mL streptomycin, 10 mM HEPES buffer (pH 7.2), 0.2% BSA; and the wash buffer was TBST. For the ErbB-4 binding assays, PBS containing 1% BSA was used as the blocking and binding buffers, and the wash buffer was PBS containing 0.05% Tween 20™.

ErbB-4-Ig = molecular target: T2, ErbB-4-Ig (Homo sapiens, UniProt Q15303); assay: as above; conditions: soluble thioredoxin (Trx)-variant fusions; HRG-β1 = recombinant HRG-β1 177-244
T2 construct: expressed the extracellular domain (ECD) of the ErbB-2, ErbB-3, or ErbB-4 receptor fused to a human IgG constant domain; made in house; host or cells: HEK-293 cells, secreted, Protein A purified
T2 sequence (Q15303 with tags, fused parts or gaps): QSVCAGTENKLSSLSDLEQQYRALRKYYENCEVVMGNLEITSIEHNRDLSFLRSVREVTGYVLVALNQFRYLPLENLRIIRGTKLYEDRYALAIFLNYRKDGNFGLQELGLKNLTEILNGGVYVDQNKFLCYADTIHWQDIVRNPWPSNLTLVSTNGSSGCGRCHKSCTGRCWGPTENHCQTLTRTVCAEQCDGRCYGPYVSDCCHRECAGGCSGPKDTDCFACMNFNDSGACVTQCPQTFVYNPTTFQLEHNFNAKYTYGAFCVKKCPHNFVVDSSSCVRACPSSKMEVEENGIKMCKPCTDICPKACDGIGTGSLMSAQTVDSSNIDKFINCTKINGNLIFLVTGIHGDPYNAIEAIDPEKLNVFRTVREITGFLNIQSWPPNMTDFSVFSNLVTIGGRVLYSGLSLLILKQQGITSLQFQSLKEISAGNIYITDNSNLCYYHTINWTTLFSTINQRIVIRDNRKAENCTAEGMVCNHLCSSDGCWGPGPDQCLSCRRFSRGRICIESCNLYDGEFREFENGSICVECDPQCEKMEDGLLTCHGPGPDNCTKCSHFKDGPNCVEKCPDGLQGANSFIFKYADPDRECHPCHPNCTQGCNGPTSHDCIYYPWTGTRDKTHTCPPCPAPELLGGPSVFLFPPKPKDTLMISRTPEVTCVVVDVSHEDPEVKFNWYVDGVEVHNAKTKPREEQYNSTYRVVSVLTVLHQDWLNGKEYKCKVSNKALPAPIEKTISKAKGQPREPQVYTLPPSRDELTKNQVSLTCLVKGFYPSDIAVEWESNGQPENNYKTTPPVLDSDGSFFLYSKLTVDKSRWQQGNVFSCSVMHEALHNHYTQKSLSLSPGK
Description: as §1

ErbB-2/3-Ig = assay: Inhibition of 125I-HRG binding by soluble HRG-β1 EGF variants; conditions: ErbB-2/3-Ig versus ErbB-3-Ig homodimer
Description: The affinities of the soluble variants for ErbB-Ig were determined by measuring inhibition of ^125I-HRG binding to ErbB-2/3, -3 and -4 receptor-Ig fusions, as previously described in Example 1.

T1 sequence (P21860 with tags, fused parts or gaps): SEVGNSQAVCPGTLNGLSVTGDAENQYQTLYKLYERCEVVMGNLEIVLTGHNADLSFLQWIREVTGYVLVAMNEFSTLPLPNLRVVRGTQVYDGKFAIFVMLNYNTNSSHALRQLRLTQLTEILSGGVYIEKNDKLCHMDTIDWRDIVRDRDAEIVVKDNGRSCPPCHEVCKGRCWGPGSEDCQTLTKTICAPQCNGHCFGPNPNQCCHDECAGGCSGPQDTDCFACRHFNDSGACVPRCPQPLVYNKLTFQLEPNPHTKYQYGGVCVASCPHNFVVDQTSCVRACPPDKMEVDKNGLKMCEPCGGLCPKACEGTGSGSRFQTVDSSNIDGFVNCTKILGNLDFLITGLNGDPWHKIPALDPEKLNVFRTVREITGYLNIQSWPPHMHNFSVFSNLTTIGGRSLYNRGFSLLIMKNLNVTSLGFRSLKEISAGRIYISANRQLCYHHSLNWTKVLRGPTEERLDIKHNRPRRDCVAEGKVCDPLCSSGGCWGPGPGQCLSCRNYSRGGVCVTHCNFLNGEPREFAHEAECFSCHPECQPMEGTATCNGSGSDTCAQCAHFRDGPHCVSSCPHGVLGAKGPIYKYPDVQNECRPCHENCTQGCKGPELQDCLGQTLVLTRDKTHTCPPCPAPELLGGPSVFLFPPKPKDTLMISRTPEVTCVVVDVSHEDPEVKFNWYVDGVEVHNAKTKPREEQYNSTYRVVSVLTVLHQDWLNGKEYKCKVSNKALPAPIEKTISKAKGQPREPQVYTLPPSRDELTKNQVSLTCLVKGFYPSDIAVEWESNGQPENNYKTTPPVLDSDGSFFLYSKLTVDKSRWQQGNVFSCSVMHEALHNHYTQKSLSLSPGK

Q: Which “increase in ErbB-3 receptor (ErbB-3-Ig) affinity over wild-type HRG-β1 EGF” value (ErbB-3-Ig [1]; phage ELISA) does the source give for “B10: HRG-β1 EGF library B variant: A183D, E184K, K185S, E186R, K187E, T188G, M226I (SHLVKCDKSREGFCVNGGECFMVKDLSNPSRYLCKCPNEFTGDRCQNYVIAS; left off: large carriers; small tags and cut ends) [Variant B10]” here?
A: up to 26 fold

B1: R220: HRG-β1 variant with R220 mutated to alanine (protein)
chain: SHLVKCAEKEKTFCVNGGECFMVKDLSNPSRYLCKCPNEFTGDACQNYVMASFYKHLGIEFMEAEELY
modifications: left off: large carriers; small tags and cut ends
notes: HRG-β1 variant with R220 mutated to alanine
Q: B1 was tested. Which “Sol EC50, binding to the ErbB-3 receptor” value (ErbB-3-Ig [2]) did it give?
A: no binding

Q: And the “Sol EC50, binding to the ErbB-4 receptor” value (ErbB-4-Ig)?
A: no binding

B2: HRG8: wild-type HRG-β1 177-228 (minimal EGF-like domain); on phage linked via (GGGS)3 to pIII 323, or soluble (protein)
chain: SHLVKCAEKEKTFCVNGGECFMVKDLSNPSRYLCKCPNEFTGDRCQNYVMASGGGSGGGSGGGSNSQMAQVGDGDNSPLMNNFRQYLPSLPQSVECRPFVFSAGKPYEFSIDCDKINLFRGVFAFLLYVATFMYVFSTFANILRNKES
Q: For B2, which “higher affinity for the 2/3-heterodimer versus the 3/3 homodimer” value (ErbB-2/3-Ig) is on record?
A: approximately 100 fold

B3: HRG63: HRG-β1 EGF control variant in which HRG-β1 202-204 of HRG8 are deleted (protein)
chain: SHLVKCAEKEKTFCVNGGECFMVKDPSRYLCKCPNEFTGDRCQNYVMASGGGSGGGSGGGSNSQMAQVGDGDNSPLMNNFRQYLPSLPQSVECRPFVFSAGKPYEFSIDCDKINLFRGVFAFLLYVATFMYVFSTFANILRNKES
Q: How did the “Phage ErbB-3 EC50 (wt)/EC50 (mut)” value (ErbB-3-Ig [1]; relative to wild-type HRG-β1 EGF-phage in the same assay run, above 1 = higher affinity, ± SD of 2-4 duplicate runs) turn out when B3 was run?
A: 1.1 ± 0.8
